According to patent US20140134169A1, “Methods of Treating Ovarian Cancer with Dll4 Antagonists” (Regeneron Pharmaceuticals, Inc., priority 2012, published 2014):

How the values were obtained:
[1] = test system: A2780 cells; experiment: A2780 ovarian xenograft (intraperitoneal) tumor growth inhibition; format: in vivo, human; settings: for % TGI: REGN421 2.5 mg/kg 1x/week
Description: (§1) Ovarian tumor xenograft cells were implanted into humanized Dll4 SCID mice or vendor SCID mice (i.e., SCID mice expressing native murine Dll4). After implantation, mice were treated with REGN421 (anti-human Dll4 antibody, binds to human Dll4), mDll4Ab1 (anti-murine Dll4 antibody, binds to murine Dll4), or a human Fc domain control protein. In one study, mice were treated with VEGF-Trap, mDll4Ab1 or VEGF-Trap plus mDll4Ab1. TOV-112D cells (5×10^6) were implanted subcutaneously into the right flank of humanized Dll4 (n=4) or vendor SCID mice (n=7). Treatment with REGN421 (2.5 mg/kg, 1×/week) or mDll4Ab1 (5 mg/kg, 1×/week) vs. hFc control was initiated one week after tumor cell implantation. Animals were treated for 2 to 3 weeks. A2780 cells (2×10^6) were implanted intraperitoneally into humanized Dll4 or vendor SCID mice (n=4-5). Treatment with REGN421 (2.5 mg/kg, 1×/week) or mDll4Ab1 (5 mg/kg, 1×/week) vs. hFc control was initiated one week after tumor cell implantation. For the A2780 combination study, simultaneous treatment with mDll4Ab1 (5 mg/kg, 1×/week) and VEGF-Trap (10 mg/kg, 2×/week) was initiated one week after tumor cell implantation. A VEGF-Trap single treatment arm was included in this study. Animals bearing A2780 tumors were treated for 4-5 weeks. SKOV-3 cells (5×10^6) in matrigel were implanted subcutaneously and tumor-bearing animals (n=10) were dosed with REGN421 (2.5 mg/kg) and mDll4Ab1 (5 mg/kg) once weekly. OVCAR-3 cells (1×10^7) were implanted subcutaneously into the right flank of vendor SCID mice (n=7). Treatment with mDll4Ab1 (5 mg/kg 1×/week) vs. hFc control was initiated 66 days after tumor cell implantation. Animals were treated for a total of 5 weeks. Tumor growth inhibition (TGI) was measured as detailed above.

[2] = target: human Dll4 (human, UniProt Q9NR61 27-524, limits assumed); experiment: cell-based or functional assay
human Dll4, sequence (Q9NR61 27-524 limits assumed): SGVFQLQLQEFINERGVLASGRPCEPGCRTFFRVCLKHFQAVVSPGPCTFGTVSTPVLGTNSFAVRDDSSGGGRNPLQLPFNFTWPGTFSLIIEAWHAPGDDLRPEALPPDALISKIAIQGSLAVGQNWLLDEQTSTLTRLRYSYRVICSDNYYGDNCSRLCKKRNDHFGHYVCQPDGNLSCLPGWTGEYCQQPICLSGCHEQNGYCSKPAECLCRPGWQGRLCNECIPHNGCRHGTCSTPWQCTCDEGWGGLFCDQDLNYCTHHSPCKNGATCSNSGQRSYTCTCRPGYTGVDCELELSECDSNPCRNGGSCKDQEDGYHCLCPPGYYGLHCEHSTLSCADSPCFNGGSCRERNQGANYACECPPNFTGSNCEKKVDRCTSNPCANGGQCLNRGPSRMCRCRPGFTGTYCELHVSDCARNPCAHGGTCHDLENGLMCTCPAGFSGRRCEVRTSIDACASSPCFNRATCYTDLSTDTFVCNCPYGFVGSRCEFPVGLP

[3] = test system: Hey1 gene expression in Colo205 human colorectal tumor cells; experiment: Hey1 gene expression in Colo205 tumors in humanized Dll4 SCID mice (microarray); format: in vivo
Description: The effect of anti-hDll4 antibody on differential gene expression in tumors was studied in humanized Dll4 SCID mice implanted with human Colo205 colorectal tumor cells. Briefly, Male and female humanized Dll4 SCID mice were subcutaneously implanted with 2×10^6 Colo205 cells per mouse. When the tumors reached ˜150 mm^3, mice (4 animals per group) were treated with a single dose of REGN421 at 0.5, 5 or 15 mg/kg, or of hFc control at 15 mg/kg. The tumors were excised at 5 hrs, 10 hrs, 24 hrs, 72 hrs and 7 days after the treatment and stored in RNA later stabilization reagent (Qiagen). Tumor RNA was purified using the RNeasy® Midi Kit (Qiagen). Tissue was homogenized in lysis buffer containing […] in a mixer mill, loaded onto the columns and unbound contaminants washed through. DNase I digestion was performed on the column and RNA was eluted in RNase-free water. Cyanine 3 (Cy3)-CTP was incorporated into amplified cRNA from 500 ng of total RNA using the Quick Amp™ RNA Amplification Kit (Agilent Technologies). Cy3-labeled cRNA from each sample was then hybridized to a custom array covering both the mouse and human transcriptome. The hybridization and wash of the arrays were performed according to the manufacture's protocol and arrays were scanned on an Agilent Microarray scanner. The data were extracted from scanned array images using the Agilent Feature Extraction Software 9.5. […]

[4] = test system: Hey-1 transcript (Dll4-notch signaling pathway); experiment: Hey-1 transcript in Phase I patient samples (microarray); format: in vivo, human; settings: all samples, 0.25 and 0.5 mg/kg
Description: The pharmacodynamic effect of REGN421 on the Dll4-notch signaling pathway has been analyzed using microarray technology on the patient serum samples collected prior to as well as 24 hours following REGN421 administration.

[5] = test system: SKOV-3 cells; experiment: SKOV-3 ovarian xenograft (subcutaneous) tumor growth inhibition; format: in vivo, human; settings: Humanized Dll4 SCID mice; REGN421 2.5 mg/kg once weekly; 2.5 mg/kg
Description: as §1, with “SKOV-3 cells (5×10^6) in matrigel were implanted subcutaneously and tumor-bearing animals (n=10) were dosed with REGN421 (2.5 mg/kg) and mDll4Ab1 (5 mg/kg) once weekly. OVCAR-3 cells (1×10^7) were implanted subcutaneously into the right flank of vendor SCID mice (n=7). Treatment with mDll4Ab1 (5 mg/kg 1×/week) vs. hFc control was initiated 66 days after tumor cell implantation. Animals were treated for a total of 5 weeks.” left out

Hey-1 transcript Post-treatment vs. Pre-treatment ratio (patient 1, 0.25 mg/kg) [2]: 0.52 ratio
Hey-1 transcript Post-treatment vs. Pre-treatment ratio (patient 2, 0.25 mg/kg) [2]: 0.85 ratio
Hey-1 transcript Post-treatment vs. Pre-treatment ratio (patient 3, 0.25 mg/kg) [2]: 0.77 ratio
Hey-1 transcript Post-treatment vs. Pre-treatment ratio (patient 4, 0.25 mg/kg) [2]: 0.51 ratio
Hey-1 transcript Post-treatment vs. Pre-treatment ratio (patient 5, 0.25 mg/kg) [2]: 0.61 ratio
Hey-1 transcript Post-treatment vs. Pre-treatment ratio (patient 6, 0.25 mg/kg) [2]: 0.55 ratio
Hey-1 transcript Post-treatment vs. Pre-treatment ratio (patient 7, 0.25 mg/kg) [2]: 0.75 ratio
Hey-1 transcript Post-treatment vs. Pre-treatment ratio (patient 8, 0.5 mg/kg) [2]: 0.68 ratio
Hey-1 transcript Post-treatment vs. Pre-treatment ratio (patient 9, 0.5 mg/kg) [2]: 0.82 ratio
B1: REGN421 (antibody, V domains shown)
VH: QVQLVESGGGVVQPGRSLRLSCAASGFTFSSYGMHWVRQAPGKGLEWVSFLWYDGTNKNYVESVKGRFTISRDNSKNMLYLEMNSLRAEDTAVYYCARDHDFRSGYEGWFDPWGQGTLVTVSS
VL: EIVLTQSPATLSLSPGERATLSCRASQSVSSYLAWYQQKPGQAPRLLIYDASNRATGIPARFSGSGSGTDFTLTISSLEPEDFAVYYCQHRSNWPPTFGGGTKVEIK
% TGI ([1]; Humanized Dll4 SCID mice, 2.5 mg/kg): 83%
% TGI ([1]; SCID mice (native murine Dll4), mDll4Ab1 5 mg/kg 1x/week, VEGF-Trap 10 mg/kg 2x/week): −37%
anti-tumor activity (in words) ([1]; vendor SCID mice): did not exhibit any appreciable anti-tumor activity
Hey1 mRNA levels compared to control hFc-treated mice ([3]; single dose 0.5 mg/kg (lowest dose)): No significant decrease
Hey1 mRNA levels compared to control hFc-treated mice ([3]; single dose REGN421, starting at 10 hours, most significantly at 72 hours and 7 days post-treatment): decreased
expression of the Hey-1 gene compared to pre-treatment samples [4]: reduced
% TGI [5]: 61%
